T1: recombinant chimpanzee PSMA extracellular domain (ECD) protein (Pan troglodytes, UniProt Q04609 44-750 (human entry))
T1 construct: also called Chimp PSMA ECD; PSMG8
T1 chain: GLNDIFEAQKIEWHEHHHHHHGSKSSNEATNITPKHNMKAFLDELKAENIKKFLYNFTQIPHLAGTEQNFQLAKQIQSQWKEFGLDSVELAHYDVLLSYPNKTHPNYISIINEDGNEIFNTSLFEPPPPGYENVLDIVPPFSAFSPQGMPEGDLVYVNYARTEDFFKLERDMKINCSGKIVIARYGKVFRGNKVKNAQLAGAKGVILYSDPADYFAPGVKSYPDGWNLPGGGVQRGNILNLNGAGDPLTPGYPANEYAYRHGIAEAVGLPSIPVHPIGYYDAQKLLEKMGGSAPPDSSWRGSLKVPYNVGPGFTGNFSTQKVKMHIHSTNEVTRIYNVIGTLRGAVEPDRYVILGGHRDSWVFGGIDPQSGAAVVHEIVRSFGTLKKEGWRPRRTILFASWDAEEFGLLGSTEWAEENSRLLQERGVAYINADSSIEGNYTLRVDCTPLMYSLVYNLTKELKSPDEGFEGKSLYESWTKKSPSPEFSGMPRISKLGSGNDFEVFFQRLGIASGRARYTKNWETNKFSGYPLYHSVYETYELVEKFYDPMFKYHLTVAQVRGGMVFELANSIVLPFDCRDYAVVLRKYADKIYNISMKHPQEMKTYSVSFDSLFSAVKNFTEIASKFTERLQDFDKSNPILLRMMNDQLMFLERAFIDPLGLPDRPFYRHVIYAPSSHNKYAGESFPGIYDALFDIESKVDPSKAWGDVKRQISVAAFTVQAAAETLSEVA

T2: recombinant cynomolgous monkey PSMA extracellular domain (ECD) protein (Macaca fascicularis, UniProt Q04609 48-750 (human entry), biotin on the Avi tag)
T2 construct: also called cyno PSMA ECD; PSMG1
T2 chain: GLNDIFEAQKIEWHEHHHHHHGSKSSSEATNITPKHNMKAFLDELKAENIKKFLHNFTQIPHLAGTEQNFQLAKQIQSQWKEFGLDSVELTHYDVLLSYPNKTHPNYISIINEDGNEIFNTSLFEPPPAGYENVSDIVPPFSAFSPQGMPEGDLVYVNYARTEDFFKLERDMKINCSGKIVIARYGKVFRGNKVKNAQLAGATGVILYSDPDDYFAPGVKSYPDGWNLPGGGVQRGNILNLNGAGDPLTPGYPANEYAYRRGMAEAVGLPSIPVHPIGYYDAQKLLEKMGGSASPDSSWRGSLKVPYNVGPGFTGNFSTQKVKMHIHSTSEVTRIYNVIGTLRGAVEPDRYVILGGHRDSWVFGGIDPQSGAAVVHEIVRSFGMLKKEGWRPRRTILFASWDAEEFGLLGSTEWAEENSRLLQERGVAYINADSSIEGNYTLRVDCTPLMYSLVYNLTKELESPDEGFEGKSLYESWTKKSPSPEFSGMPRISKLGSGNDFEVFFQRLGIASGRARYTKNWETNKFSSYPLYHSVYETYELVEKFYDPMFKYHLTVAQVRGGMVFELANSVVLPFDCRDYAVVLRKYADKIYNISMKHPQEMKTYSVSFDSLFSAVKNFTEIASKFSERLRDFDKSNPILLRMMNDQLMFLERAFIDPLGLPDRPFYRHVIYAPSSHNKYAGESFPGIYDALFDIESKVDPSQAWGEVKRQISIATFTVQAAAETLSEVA


Legend:
[1] = target: T1, recombinant chimpanzee PSMA …; test: SPR ProteOn
[2] = target: T2, recombinant cynomolgous monkey PSMA …; test: SPR ProteOn
[3] = target: T3, recombinant human PSMA extracellular domain (ECD) protein (human, UniProt Q04609 44-750); test: SPR ProteOn
T3 construct: also called human PSMA ECD

[4] = target: T1, recombinant chimpanzee PSMA …; test: SPR ProteOn, bsAb captured by anti-Fc
Protocol: The interactions of PSMA×CD3 bispecific mAbs with target (recombinant Chimp, PSMA) were studied by Surface Plasmon Resonance (SPR) using a ProteOn XPR36 system (BioRad). […] Approximately 4400 RU (response units) of anti-Human IgG Fc antibodies were immobilized. The kinetic experiments were performed at 25° C. in running buffer (DPBS+0.03% P20+100 μg/ml BSA). […] The association phase was monitored for 3 minutes at 50 μL/min, then followed by 15 minutes of buffer flow (dissociation phase). The chip surface was regenerated with two 18 second pulses of 100 mM Phosphoric acid (H₃PO₄, Sigma, cat #7961) at 100 μL/min.
The collected data were processed using ProteOn Manager software. First, the data was corrected for background using inter-spots. Then, double reference subtraction of the data was performed by using the buffer injection for analyte injections. The kinetic analysis of the data was performed using a Langmuir 1:1 binding model.

[5] = target: T2, recombinant cynomolgous monkey PSMA …; test: SPR ProteOn, bsAb captured by anti-Fc
[6] = target: T1, recombinant chimpanzee PSMA …; test: SPR ProteOn
[7] = target: T2, recombinant cynomolgous monkey PSMA …; test: SPR ProteOn
[8] = target: T3, recombinant human PSMA extracellular …; test: SPR ProteOn; remark: listed apart in the source
[9] = target: T3, recombinant human PSMA extracellular …; test: SPR ProteOn, bsAb captured by anti-Fc

| Binder | Kd [1] [nM] | koff [1] [s⁻¹] | kon [1] [M⁻¹ s⁻¹] | Kd [2] [nM] | koff [2] [s⁻¹] | kon [2] [M⁻¹ s⁻¹] | Kd [3] [nM] | koff [3] [s⁻¹] | kon [3] [M⁻¹ s⁻¹] | Kd [4] [nM] | koff [4] [s⁻¹] | kon [4] [M⁻¹ s⁻¹] | Kd [5] [nM] | koff [5] [s⁻¹] | kon [5] [M⁻¹ s⁻¹] | Kd [6] [nM] | Kd [7] [nM] | Kd [8] [nM] | Kd [9] [nM] | koff [9] [s⁻¹] | further results |
| --- | --- | --- | --- | --- | --- | --- | --- | --- | --- | --- | --- | --- | --- | --- | --- | --- | --- | --- | --- | --- | --- |
| PS3B27 (bispecific antibody, human IgG4 S228P, kappa, lambda, F234A L235A, IgG4 PAA; PSMA arm chains first, then CD3 arm (F405L, R409K); also called PSMB127 x CD3B219; PS2B27) heavy 1: not shown light 1: not shown heavy 2: EVQLVESGGGLVQPGGSLRLSCAASGFTFNTYAMNWVRQAPGKGLEWVARIRSKYNNYATYYAASVKGRFTISRDDSKNSLYLQMNSLKTEDTAVYYCARHGNFGNSYVSWFAYWGQGTLVTVSSASTKGPSVFPLAPCSRSTSESTAALGCLVKDYFPEPVTVSWNSGALTSGVHTFPAVLQSSGLYSLSSVVTVPSSSLGTKTYTCNVDHKPSNTKVDKRVESKYGPPCPPCPAPEAAGGPSVFLFPPKPKDTLMISRTPEVTCVVVDVSQEDPEVQFNWYVDGVEVHNAKTKPREEQFNSTYRVVSVLTVLHQDWLNGKEYKCKVSNKGLPSSIEKTISKAKGQPREPQVYTLPPSQEEMTKNQVSLTCLVKGFYPSDIAVEWESNGQPENNYKTTPPVLDSDGSFLLYSKLTVDKSRWQEGNVFSCSVMHEALHNHYTQKSLSLSLGK light 2: QTVVTQEPSLTVSPGGTVTLTCRSSTGAVTTSNYANWVQQKPGQAPRGLIGGTNKRAPGTPARFSGSLLGGKAALTLSGVQPEDEAEYYCALWYSNLWVFGGGTKLTVLGQPKAAPSVTLFPPSSEELQANKATLVCLISDFYPGAVTVAWKADSSPVKAGVETTTPSKQSNNKYAASSYLSLTPEQWKSHRSYSCQVTHEGSTVEKTVAPTECS | 7.48 | 0.00156 | 208000 | 7 | 0.0011 | 159000 | 10.3 | 0.00289 | 287000 | 7.48 | 0.00156 | 208000 | 7 | 0.0011 | 159000 | 7.48 | 7 | 10.3 | 10.3 | 0.00289 | kon [9]: 287000 M⁻¹ s⁻¹ |
| PS3B25 (bispecific antibody, human IgG4 S228P, kappa, lambda, F234A L235A, IgG4 PAA; also called PSMB87 x CD3B219) heavy 1: not shown light 1: not shown heavy 2: EVQLVESGGGLVQPGGSLRLSCAASGFTFNTYAMNWVRQAPGKGLEWVARIRSKYNNYATYYAASVKGRFTISRDDSKNSLYLQMNSLKTEDTAVYYCARHGNFGNSYVSWFAYWGQGTLVTVSSASTKGPSVFPLAPCSRSTSESTAALGCLVKDYFPEPVTVSWNSGALTSGVHTFPAVLQSSGLYSLSSVVTVPSSSLGTKTYTCNVDHKPSNTKVDKRVESKYGPPCPPCPAPEAAGGPSVFLFPPKPKDTLMISRTPEVTCVVVDVSQEDPEVQFNWYVDGVEVHNAKTKPREEQFNSTYRVVSVLTVLHQDWLNGKEYKCKVSNKGLPSSIEKTISKAKGQPREPQVYTLPPSQEEMTKNQVSLTCLVKGFYPSDIAVEWESNGQPENNYKTTPPVLDSDGSFLLYSKLTVDKSRWQEGNVFSCSVMHEALHNHYTQKSLSLSLGK light 2: QTVVTQEPSLTVSPGGTVTLTCRSSTGAVTTSNYANWVQQKPGQAPRGLIGGTNKRAPGTPARFSGSLLGGKAALTLSGVQPEDEAEYYCALWYSNLWVFGGGTKLTVLGQPKAAPSVTLFPPSSEELQANKATLVCLISDFYPGAVTVAWKADSSPVKAGVETTTPSKQSNNKYAASSYLSLTPEQWKSHRSYSCQVTHEGSTVEKTVAPTECS | 3.54 | 0.00099 | 281000 | 81.1 | 0.00797 | 98000 | 5.38 | 0.00101 | 188000 | 3.54 | 0.00099 | 281000 | 81.1 | 0.00797 | 98000 | 3.54 | 81.1 | 5.38 | 5.38 | 0.00101 | kon [9]: 188000 M⁻¹ s⁻¹ |

Reference: patent publication US20200024360A1 (Janssen / Centocor, published 2020)
